Data as given in the DeepSol protein solubility set.

Assay: soluble on expression in E. coli; label from the status in PepcDB or PDB records

Sequence | soluble on expression in E. coli
MGSDKIHHHHHHMNSMLNILEEISSRIKRPLITLLLFKYLRSVKRLECKNGQIIEIDDPSKYFISDLVYVCDVFKHFKSIKVRNGKVILDGIPFRPSELRYIGDVIEKLKLRVGSNFIAEFIYNGRIVKFRLAMTSKGVTGVFSLYEMFVREDYKVFDYKGKTVLDVCGFIGDSALFFALNDAKKVVSFEPQREAYELLVENVKLNEFDNIIVAINEAVGEKDSMVEFLIPDEFSLGASRYIRAGKKTSVKVRDIIRVMNEFKPDIIKLDCEGCEYGIIDKLLKTGRIYDVEGLVVEFHDTPEVKRWDYIRSLPFDVAIISDNPHWKVTVVSIRVMQNDAPRHI | not soluble
MAHHHHHHMEVRRIAPIGRAAVLVMKNVSGNMWAGYSDGAIRVFDHVTQKVLRQSTQHTAAVYAMCAADGYVFTGGADGKVYQWMADDLHYSHMYYGHRNAVRSLTTYTDQKSRCRYVVSGSDDGTVKVWEATVAKTSGTPRKDGGCVSTLDGQGRCVLSILVLEDAAELWAGSEDSVIRVWDLSSMTVTTVITGHRAPVVTLLKVGDTVWSGSKDGAITITNRFSKDIVHQASQPPANRSAAPGGQRSSVSILPVTRTVVYEVWATAVDGSWQCWNFTVPEGVKSYVEEADVLKGGWCPSHSRPQRLSRVGQRSSRNVRSSSVNEYSENGLHSASARARRSDEKLRASVAQTRRTVAVLLAGSKVHQGLGAHNGNGFAHRNEAASVDIVDDDDTPLDIVAESIRNDHTAETQREVQLKQAALAKERRKSAKLRAALEMMCKDPVAIAEEGAKKVFRRTDSLVIAETLAMERQSGKLGSPTTEKLVGVSSQLELLKAQNKAMAAAVTESKKVPD | soluble
MDRVLPFRFAEEEGVFWLLDQRRLPQEEVYVPVRTAREMAQAIRDMVVRGAPAIGVSAAFGMVLAHLAGEDLEEADRRLRASRPTAVNLFHALDRMRPFWGDLAGSLLEARRIWREVEETEAAISRHGAQVLWGQVLTHCNTGPLATGGYGTALGAIVEAYRLGRVRHVWVDETRPYLQGARLTAYELQKAGVPATLITDGMAGWLMARGAVDAVVVGVDRMALNGDFANKVGTYALAVLAHHHGIPFYAALPLSSVDPRLASGEGIPIEERSPEEVVAFRGVRIAPEGFPAYHPAFDVTPHRYLTGIITEKGVLYPPFAEGLRRALGLD | soluble
MSLTLSIPPSIQCQTEAACRLITRVTGDTLRAIHLYGSAVAGDLKPNSDIDLLVTICQPLTETQRATLMQELLALSSPPGASAEKRALEVTVVLYSQLVPWCFPPSREMQFGEWLREDIYQGIYEPAQQDWDMVLLITQILETSIPLKGERAERLFTPAPAAQLLKALRYPLDLWQSTADVQGDEYHIVLTLARIWYTLSTGRFTSKDAAADWLLPQLPEEYAATLRAAQREYLGLEQQDWHILLPAVVRFVDFAKAYIPTQFTEGHHHHHH | soluble
MGSDKIHHHHHHMLKLYSFGPAANSMKPLLTVFEKGLDVEKHRLDPAKFEHHTDWFKAINPRGQVPALVDGDKVVTESTVICEYLEDEYPTEVALRPADSFGKAQMRIWTKWVDEYFCWCVSTIGWHRYVGNMVKSLSDAEFEEKVKAIPVIEQQVKWRRAREGFPQDMLDEEMRKIAYSVRKLDDHLADHEWLVPGQYTLADICNFAIANGMQFGFAELVNKQDTPHLVRWIEQINERPAVKQMFAQVELEKLGPRE | not soluble
ASPIGEGTFDDGPEGWVAYGTDGPLDTSTGALCVAVPAGSAQYGVGVVLNGVAIEEGTTYTLRYTATASTDVTVRALVGQNGAPYGTVLDTSPALTSEPRQVTETFTASATYPATPAADDPEGQIAFQLGGFSADAWTLCLDDVALDSEVEL | soluble
KLGTSTGEFTGSNQTTQPTAIMELINKVQKDAANAQLSIAAPLSSSAYIPKGDVTIKDIMSVYVYENYLYGIKMTGKQLKDWLEYSVRYYKQVSSPNDSIAKDPALNVPDYNLDQLYGATYDIDLTQPACTIDPSTGRIASGDRIKNLKINGVPIKDSDVFTVAINDYRYNGGGGFMKAAGISNTDPSIVTYSSAKALGDDGQVRSLMQSYIKNNQTISPENSNNWKLYTT | not soluble
SETRGPQGAANPMDSSRSLGDLGPFPREVGRGAPLAPGARNPATAGASRSQGGGHEDRTADRALGPRAGEELDRESWVREKVLFLLHPERWLGTRGDPAREEVAGAEDLPHAGGEDHGEEPNYPSVFQREKRISGRRVAPPRDAADPPKYVLVRVEDYQVTQEVLQTSWAKGRMTTRTEEHFVTALTFRSSREGQPGERWGPAESRALQARTGASRVHAAGRRVSPSPGTWLEEIKL | soluble
MGSDKIHHHHHHMEKDRHEIEIFKIDQMFIGDSQEELIKQGEGRRKEHPIAAISTFNPVKRDVFQLIKLTEEKMIPELLGMRHKRMMQNPFSYFRATAGIMEKDLRQFPDGQSHIPVIICGDSHLTNFGFFASPERHLLFGLNDFDEARIGNWEFDLKRLLTSVVLIGRINGYPKEQLDGILAESVHSYRRGIKYANSLPLLDRFNLSYSVDDLLGQMTDNEQMKRVLLKVADRAPKKNSDAVVKKFTEKTEDGRLRFKKNPPRARRVSQKVYAELMASLEDYQKSVADDIRVLLINYEVTDIIRYSVGVGSWGTRCYLALLTGKDGSHLVLQIKEALPLRYNLSALTVEESQAQGKGEGKRIITAQRVLQTYHDPFLGAMEAGGRSFYVRQFRDMKDSIDPLNLDQESFSAYCNMCAFILAIAHYQSPTAPMIYGYVHKQKELDTGLAHWAVKYADQMEADYTCFAKYLQGEGDEE | not soluble
MTTVRQRIDTQHRDAIHDAQLNIYGSRLATCGSDRLVKIFEVRPNGQSYPMAELVGHSGPVWKVSWAHPKYGGLLASASYDKKVIIWNEQQGRWQKAYEWAAHEASTTCVAFAPHQYGLMLASASADGDIGILRYDNSSNEWISSKIQKCHEQGVNSVCWAPGSADPAAKKRLVSAGNDKNVKIWALSQFGAKIFRDNGSKCHVTIRNARE | soluble
MNRKAFLACVLMCVILTGCETAKKISEVIKNPDIQVGSLKEQPSEITVTLLTEPDTNTNAEGESAAVDVQLVYLTDDSKLQAADYDQIASTPLPDVLGKNYIDHQDFNLLPDTIKTLPPIKLDEKTQFIGVVAYFSDDQATEWKQIETVEGTGHHYRLLVHVRQSSIEMKKEDE | soluble
MESEGEAQMFADCDQKTVKQTAAKPMSSKKKQDFQALASDRQLAIVFSSMIQVSEAFDYGIGNPEYFVRISMTEEEADIAKENLESIKLENKSLKKQNSEAVALLQKTRNQDMSRIEIQQLTENRAGFFETADSMIKLINQVTPKNAKKTRQQLDQLKKQYTQYSAESIKIMNSIVKKQKADKASFERHLEALLQKQPGQQVRSELYLEHHHHHH | soluble
MSVLDLVALSEGMTAGEAIAHSVRAAQIAEEHNYARFWVAEHHNSEGLASSATTLLMGHIAGHTSRIRVGSGGIMMPNHSALHVAEELGTLEAIYPGRIEAGLGRAPGTDPMTARELGRASSLVDDVLSTIVSLQNYLDTPEERPNIIAHPGINSRVPLFMLGSSLNGAAMAAKLDLPFAFASHFAPFQMGPAIASYRELAANPYVMAAANVLVCDTEEEAEFQISTLHQMFAGIVTNSRGKLAPPVRNLKDKLDPMIWKHIEDSLEMTFIGTAESVVLQLQEFADRYKLDEIITVTYSYDPEVRFRSIAALGT | not soluble
GMNANQFLKAVSQLQGWRECAFLLALAERSFPNYALFADAVGLKTGGKMRQLLDLAWDMLQKDVADAAIPQLLSKLETLCPNVDEYDAYGVYPAFDFCQLLEQALLNRLNPNKHRATEASQLATRTVMDFVEMSEGEGMDENELVRVFEHHPLLKDDKLFQRDTVMALYYYRTPKEAFLAELRAGAANDGVSNLGISLEG | soluble
MIAMAQQDVKPTRSELINLKKKIKLSESGHKLLKMKRDGLILEFFKILNEARNVRTELDAAFAKSTEKINLASAVNGMVAVRSTAFTAKESPEIQLSGHNIMGVVVPKISSTGVRKSLYERGYGIIGTNSYIDETADAYEDLVEKIITAAELETTMKRLLDEIEKTKRRVNALEFKVIPELIDTMKYIRFMLEEMERENTFRLKRVKARMRDLEHHHHHH | not soluble
MVIQLQKGQKIDLGKTSPGLTKAVIGLGWDIKSYDGGSDFDLDASAFLLDANGKCTKETDFIFYNNLQSPCGSVLHTGDNRTGEGEGEGDDEQLVVDLKKVPADVHRIAITVTIYDAEGRSQNFGQVGNAFVRLANEETNEEVLRFDLGEDFSIETAVVFCELYRHNGQWKFNAVGSGFQGGLGALVRAYGLDA | not soluble
MGSDKIHHHHHHMATPPFHYQHMFPLGPDKTEYYLLTKDYVSVSEFEGKPILKIEKEGLTAMANAAFRDVSFLLRRSHNEQVAKILSDPEASDNDKYVALTFLRNAEVSAKGKLPLCQDTGTAIIHGEKGQQVWTGYCDEEALSLGVYKTYTEENLRYSQNAPLTMYDEVNTKCNLPAQIDLEATEGMEYKFLCVTKGGGSANKTYLYQETKAVLNPATLVPFLVEKMKTLGTAACPPYHIAFVIGGTSAEKNLLTVKLASTHYYDELPTTGNEYGRAFRDVELEKQVLEEAYKIGLGAQFGGKYMAHDVRIIRLPRHGASCPIGLGVSCSADRNIKCKINKDGIWIEKMDDKPGELIPAELREAGEGDVVKIDLNQPMADILKELTKYPVATRLSLNGTIIVGRDIAHAKLKERLDRGEDLPQYIKDHPIYYAGPAKTPEGMACGSMGPTTAGRMDPYVDLFQSHGGSMIMLAKGNRSQQVTDACKKYGGFYLGSIGGPAAILAQNNIKSIECVEYPELGMEAIWKIEVEDFPAFILVDDKGNDFFKQLKPRCLGNCK | not soluble
MRKWRIEDSEELYNITGWGTSYFSINDAGHVVVTPRRDGVTVDLKELVDELQLRDVASPMLLRFPDILDNRIEKMSSCFKQAAEEYGYKAENFIIYPIKVNQMRPVVEEIISHGKKFNLGLEAGSKPELHAVIAVNTDSDSLIVCNGYKDESYIELALLAQKMGKRIFLVVEKMNELKLIAKMAKQLNVQPNIGIRIKLASSGSGKWEESGGDASKFGLTSSELLEALDFMESKGLKDCLKLIHFHIGSQVTKIRRIKTALREASQFYVQLHSMGFNVEFVDIGGGLGVDYDGTRSSNSEGSVNYSIQEYVNDSISTLVDVSDKNGIPHPNIITESGRALTAHHSVLIFEVLETATLPEWDDEEEIAPDAHELVQELYSIWDSLNQNKMLEAWHDAQQIREEALDLFSHGIVDLKTRAQIERLYWSITREINQIAGGLKHAPDEFRGLSKLLADKYFCNFSLFQSLPDSWAIDQIFPIMPIQRLDEKPERSATLQDITCDSDGKIANFISTRNVAHYLPVHSLKKTEPYYLAVFLVGAYQEILGDMHNLFGDTNAVHVSVNEKGYNIEQIIDGETVAEVLDYVQYNPKKLVRTLETWVTKSVKEGKISLEEGKEFLSNYRSGLYGYTYLE | not soluble
MAVTDLSLTNSSLMPTLNPMIQQLALAIAASWQSLPLKPYQLPEDLGYVEGRLEGEKLVIENRCYQTPQFRKMHLELAKVGKGLDILHCVMFPEPLYGLPLFGCNIVAGPGGVSAAIADLSPTQSDRQLPAAYQKSLAELGQPEFEQQRELPPWGEIFSEYCLFIRPSNVTEEERFVQRVVDFLQIHCHQSIVAEPLSEAQTLEHRQGQIHYCQQQQKNDKTRRVLEKAFGEAWAERYMSQVLFDVIQ | soluble
MKAICVLSGGLDSAVTSMFAKSKNYDISTVTFNYGQMALNQEIKSAKKISDILNADHHVIDINFVKEFSKSGLNTGNIPEPENEDLDDFEKSEKTMKAVWVPARNMIMFSIASGFAEGIGAEKIFSGLNKEEGVTFPDNTPEFIERFNKSLEYGTLNKVKMVAPLYELNKPEIAKLGKELELKLDLEVLKYSYSCYKDNGKDYLHCGTCESCMRRKRAFKEAGITDPTKYLVE | not soluble
INTVGYLEQKMFAAMVADNQMAMVMLNPKNLKASNGEEELAGQTWYWKVAPVATTQPLLKAFDVSVAAEKQASPIITVRSYVAK | soluble
